We go through 167 variants from the RNAGym collection of RNA variant scans (doi:10.7554/elife.90254).

Sequences and labels used below:
B1: LINE1-full (parent)
chain: UACGUAGGUGGUUUUCCCCUGAUAGUGCUAAGGGGGCCUGGAAGUUUGGACUGGGCAGAGCUCAACACAGCGUGGCAAAGUGGCUGUGGCUAGACUGCCUCUCUGGAUUCCUCGUCACUCAGCAGGGCAUCUCUGAGAGAAAUGCC

Variants of B1 are the subject of this data set. Nature of the data set: self-cleavage, relative activity (ratio to wild type); higher = more cleavage; in vitro, sequencing; the parent is a self-cleaving ribozyme.
For the variant C133A A136U, the self-cleavage amounted to 1.38.
To U134C G144A belongs 1.18; to A129C U134C, 1.54; to A129C U134A, 1.59.
To A136U A142G belongs 1.52; to A129C U130C, 1.02.
To A129U C133A belongs 1.26.
For U132C G135A, the self-cleavage came out at 1.19.
With A138G A141G, the self-cleavage was determined as 1.25.
Take A138G A141U: the self-cleavage was found to be 1.43.
With A129G C146U, the self-cleavage is 1.59.
In the case of G135A A136G, the self-cleavage stood at 1.61.
With U130A U134A the figure was 1.33; with U130A U134C, 1.84; with U134A G135U, 1.21.
On to C133U A141G, for which the self-cleavage amounted to 1.4.
Consider C131A G135A, for which the self-cleavage came to 1.55.
With G127U A140G the figure was 1.27.
With A140G U143A the figure was 0.79; with U130C A140G, 1.49; with U130C A140U, 0.32.
With U130C A136G the figure was 1.66; with A138U U143C, 1.23; with A138U U143G, 1.5.
As to U130C C146U, the self-cleavage was found to be 1.52.
With U132A A140G the figure was 1.41.
To A140U belongs 1.26; to A140C, 0.65.
To A140G belongs 1.07; to U132C U134C, 1.35; to U132C U134A, 0.73.
For U134C A136G, the self-cleavage turned out to be 1.75.
To U134C A136U belongs 1.26.
To C133U A136G belongs 0.49; to G127U A138G, 1.29.
To A140U A142G belongs 1.73.
As for U130C A141G, the self-cleavage was 1.55.
With C133A C145A the figure was 1.51; with A140G A141G, 0.53; with A138U A142C, 2.14.
To U132C A142G belongs 1.49; to A129C U132C, 0.96; to U130G U143C, 1.5.
As to G135U A140U, the self-cleavage worked out at 1.13.
Turning to A141C U143A, the self-cleavage was found to be 1.79.
With A129U U130C the figure was 1.49.
As to U132A G139A, the self-cleavage is 1.33.
With U132G A141G, the self-cleavage stood at 1.22.
With A129U U132C the figure was 1.3; with A129U U132A, 0.04.
With A140G A142G the figure was 1.17.
With A140G A142C the figure was 1.4; with A136G A142C, 1.08; with U134C A140U, 1.02.
Take U132A U134C: the self-cleavage was 1.61.
With U130C A138G the figure was 1.75.
To U130C A138U belongs 1.36.
With A129U U143C the figure was 1.64; with A129U U143A, 1.59.
Regarding A141C A142C, the self-cleavage was determined as 0.71.
With A129G A141C the figure was 2.06; with U130A U143C, 1.25.
On to C128U U132C, for which the self-cleavage was determined as 1.37.
As for U132C C133U, the self-cleavage amounted to 1.4.
To U132C C133A belongs 1.14; to A129G U134G, 1.65.
With G127U U143C the figure was 1.66; with A136G U143C, 1.47; with C131U A136G, 1.39.
In the case of U132C U143A, the self-cleavage was determined as 1.35.
To U132C U143C belongs 1.24; to U134A A142G, 1.18; to C133U A138C, 1.74.
With A129G A140C the figure was 0.74; with A129G A140U, 1.8; with C133A A140C, 1.3.
With G137A A138G the figure was 1.38; with G135U U143C, 1.63.
As for U134A U143C, the self-cleavage was determined as 0.63.
With U134A U143A the figure was 0.77; with U132A G137A, 1.7.
With U132C A141U the figure was 0.63; with U130A A141G, 1.46; with U130A A141U, 1.13.
With A138G C146U the figure was 1.32; with G139A A141G, 1.58; with A129G, 1.52.
Consider A129U, for which the self-cleavage was found to be 1.4.
To A129C belongs 1.67; to U134A A141U, 1.12.
With A136G A140G the figure was 1.51; with A136G A140U, 1.29.
To U130A G137A belongs 1.84; to U130A A142G, 1.48.
Take G135A A138G: the self-cleavage is 1.82.
Turning to A138U A140G, the self-cleavage came out at 1.2.
In the case of C133U A140G, the self-cleavage was 1.05.
To A138G U143A belongs 1.45; to A140C A141G, 0.41.
Consider C131U A142G, for which the self-cleavage came out at 1.61.
To U130C G139A belongs 1.5; to U134C U143C, 1.21.
To U134C U143A belongs 1.37.
To G135A A140G belongs 1.18; to C133U, 1.16.
C133A: the self-cleavage was 1.37.
With A129U A142U the figure was 2.13; with U130A U132C, 1.41.
To C128U A129G belongs 1.65; to A129G U132A, 1.54; to A129U A141G, 1.34.
With U132C A136G the figure was 1.47.
On to U132C A136U, for which the self-cleavage was 1.46.
With U130C G135U the figure was 0.97; with C131U U143G, 0.59; with U130A A138G, 1.31.
With U130A A138U the figure was 1.64; with U130A C145U, 1.79; with A140U C145U, 1.63.
To G137U U143C belongs 1.04; to U134G U143G, 0.88; to A129G A138U, 2.12.
For the variant A129U U134G, the self-cleavage was found to be 1.53.
To A129U U134A belongs 1.37; to A129U U134C, 1.22; to U130C A142U, 1.6.
With U130C A142G the figure was 1.37; with U132A G144A, 1.82.
To C131G A142G belongs 0.36; to A140G G144A, 0.92.
For the variant U132A A141U, the self-cleavage amounted to 0.14.
To C128A U130C belongs 1.11.
To A141G A142G belongs 1.45.
To C128U A141U belongs 1.62; to U130C C131U, 1.28.
Take U134C A138U: the self-cleavage is 1.65.
For the variant G139U A140G, the self-cleavage came to 1.23.
With A138G A142G the figure was 1.39; with A136U, 1.23; with A136C, 1.34.
With A136G the figure was 1.27; with A140G C145A, 1.28; with A140G C145U, 0.62.
With U130C U134A the figure was 1.
For the variant A129U A140U, the self-cleavage came out at 0.88.
With U134A A138U the figure was 1.72; with U134A A138G, 1.63.
With A136C U143A the figure was 1.51; with A129G G135A, 1.63.
In the case of A129G C145U, the self-cleavage was found to be 0.99.
With A129G C145G the figure was 1.65; with A129G C131U, 0.92.
To G139U belongs 1.31.
Turning to G139C, the self-cleavage worked out at 1.53.
With G139A the figure was 0.89; with A136U A138U, 0.99; with C128U A136U, 1.67.
To U130C C133U belongs 1.42; to A129G A136U, 2.26; to A129G A142G, 1.67.
To U132G A138G belongs 1.35; to C133U A142G, 1.14; to U132C G144A, 1.86.
In the case of C131U A138G, the self-cleavage stood at 1.36.
As for U134C A142G, the self-cleavage stood at 1.42.
As to A129C G135A, the self-cleavage was determined as 2.11.
In the case of U134A C146U, the self-cleavage was 0.6.
